The record followed here is patent US20100203046A1 (Biogen, published 2010).

B1: chCB6-huIgG1 I332D (antibody, name in EU numbering)
heavy: not shown
light: QIVLTQSPAIMSASPGEKVTMTCRASSSVSHMHWYQQKSGTSPKRWIYDTSKLASGVPARFSGSGSGTSYSLTISSVEAEDAATYYCQQWSSNPLTFGAGTKLELKRTVAAPSVFIFPPSDEQLKSGTASVVCLLNNFYPREAKVQWKVDNALQSGNSQESVTEQDSKDSTYSLSSTLTLSKADYEKHKVYACEVTHQGLSSPVTKSFNRGEC
notes: copies: 2 + 2
B2: chCB6-huIgG1 S239D (antibody, name in EU numbering)
heavy: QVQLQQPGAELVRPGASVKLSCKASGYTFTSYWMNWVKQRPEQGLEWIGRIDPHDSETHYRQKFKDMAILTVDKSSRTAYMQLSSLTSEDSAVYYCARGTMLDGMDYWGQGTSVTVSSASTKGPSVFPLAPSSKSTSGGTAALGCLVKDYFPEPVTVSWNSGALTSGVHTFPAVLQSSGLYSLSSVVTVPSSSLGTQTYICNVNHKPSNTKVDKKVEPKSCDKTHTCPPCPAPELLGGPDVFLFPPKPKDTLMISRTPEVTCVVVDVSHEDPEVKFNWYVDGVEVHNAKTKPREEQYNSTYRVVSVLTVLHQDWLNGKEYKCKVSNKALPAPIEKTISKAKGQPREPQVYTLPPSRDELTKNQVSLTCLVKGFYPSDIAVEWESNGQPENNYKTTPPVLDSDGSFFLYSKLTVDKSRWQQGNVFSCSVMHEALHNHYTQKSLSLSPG
light: B1 light
notes: copies: 2 + 2
B3: chCB6-huIgG1 I332Q (antibody, name in EU numbering)
heavy: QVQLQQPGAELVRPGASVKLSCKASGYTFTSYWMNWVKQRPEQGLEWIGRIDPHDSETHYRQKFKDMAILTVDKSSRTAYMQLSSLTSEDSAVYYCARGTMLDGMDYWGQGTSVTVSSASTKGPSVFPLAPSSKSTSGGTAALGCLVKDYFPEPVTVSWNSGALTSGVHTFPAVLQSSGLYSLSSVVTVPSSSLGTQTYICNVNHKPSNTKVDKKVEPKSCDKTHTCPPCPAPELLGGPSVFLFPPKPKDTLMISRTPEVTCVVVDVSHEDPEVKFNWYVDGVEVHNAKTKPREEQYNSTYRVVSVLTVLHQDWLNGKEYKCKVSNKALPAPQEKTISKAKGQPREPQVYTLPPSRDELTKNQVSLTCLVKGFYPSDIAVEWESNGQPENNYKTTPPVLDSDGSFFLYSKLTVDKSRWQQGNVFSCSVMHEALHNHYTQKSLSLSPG
light: B1 light
notes: copies: 2 + 2
B4: chCB6-huIgG1 L328Q (antibody, name in EU numbering)
heavy: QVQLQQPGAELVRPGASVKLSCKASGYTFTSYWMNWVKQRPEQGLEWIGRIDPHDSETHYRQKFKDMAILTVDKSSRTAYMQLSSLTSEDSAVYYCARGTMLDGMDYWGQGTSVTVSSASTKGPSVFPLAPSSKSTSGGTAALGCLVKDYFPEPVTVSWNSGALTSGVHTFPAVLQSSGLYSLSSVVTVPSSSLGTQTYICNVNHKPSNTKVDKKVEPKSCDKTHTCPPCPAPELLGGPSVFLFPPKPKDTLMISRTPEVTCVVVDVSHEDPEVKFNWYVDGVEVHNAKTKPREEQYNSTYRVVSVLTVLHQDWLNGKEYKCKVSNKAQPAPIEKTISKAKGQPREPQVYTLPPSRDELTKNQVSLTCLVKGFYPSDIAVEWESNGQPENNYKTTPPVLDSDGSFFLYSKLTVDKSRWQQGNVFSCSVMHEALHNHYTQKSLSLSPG
light: B1 light
notes: copies: 2 + 2
B5: chCB6-huIgG1 L328E (antibody, name in EU numbering)
heavy: not shown
light: B1 light
notes: copies: 2 + 2
B6: chCB6-huIgG1 S239E (antibody, name in EU numbering)
heavy: not shown
light: B1 light
notes: copies: 2 + 2
B7: chCB6-huIgG1 L328D (antibody, name in EU numbering)
heavy: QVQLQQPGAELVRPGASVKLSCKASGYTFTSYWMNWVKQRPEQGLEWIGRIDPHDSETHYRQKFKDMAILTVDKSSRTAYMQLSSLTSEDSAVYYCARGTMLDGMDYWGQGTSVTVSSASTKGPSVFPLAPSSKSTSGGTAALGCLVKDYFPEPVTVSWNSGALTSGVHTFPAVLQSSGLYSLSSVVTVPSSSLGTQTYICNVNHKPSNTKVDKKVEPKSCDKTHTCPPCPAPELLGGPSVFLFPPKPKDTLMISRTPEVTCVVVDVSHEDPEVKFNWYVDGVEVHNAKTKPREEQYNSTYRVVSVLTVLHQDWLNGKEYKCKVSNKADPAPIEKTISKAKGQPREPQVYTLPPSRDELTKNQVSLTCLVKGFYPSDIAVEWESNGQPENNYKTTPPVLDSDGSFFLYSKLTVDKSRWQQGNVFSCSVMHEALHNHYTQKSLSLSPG
light: B1 light
notes: copies: 2 + 2
B8: chCB6-huIgG1 F241Q (antibody, name in EU numbering)
heavy: not shown
light: B1 light
notes: copies: 2 + 2
B9: chCB6-huIgG1 S298N (antibody, name in EU numbering)
heavy: not shown
light: B1 light
notes: copies: 2 + 2
B10: chCB6-huIgG1 R301Q (antibody, name in EU numbering)
heavy: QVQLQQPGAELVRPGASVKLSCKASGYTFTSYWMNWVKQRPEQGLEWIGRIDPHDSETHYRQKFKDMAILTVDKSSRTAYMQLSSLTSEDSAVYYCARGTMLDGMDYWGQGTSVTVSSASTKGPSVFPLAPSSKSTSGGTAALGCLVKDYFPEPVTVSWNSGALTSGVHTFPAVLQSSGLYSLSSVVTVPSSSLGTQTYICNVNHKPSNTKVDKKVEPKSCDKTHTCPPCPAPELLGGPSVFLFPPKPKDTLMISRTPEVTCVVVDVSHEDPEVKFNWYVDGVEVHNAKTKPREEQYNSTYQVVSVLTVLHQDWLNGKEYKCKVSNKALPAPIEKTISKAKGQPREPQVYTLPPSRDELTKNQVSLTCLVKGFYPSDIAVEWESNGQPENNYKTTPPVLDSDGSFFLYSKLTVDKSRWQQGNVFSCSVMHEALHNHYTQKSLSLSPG
light: B1 light
notes: copies: 2 + 2
B11: chCB6-huIgG1 Y296H (antibody, name in EU numbering)
heavy: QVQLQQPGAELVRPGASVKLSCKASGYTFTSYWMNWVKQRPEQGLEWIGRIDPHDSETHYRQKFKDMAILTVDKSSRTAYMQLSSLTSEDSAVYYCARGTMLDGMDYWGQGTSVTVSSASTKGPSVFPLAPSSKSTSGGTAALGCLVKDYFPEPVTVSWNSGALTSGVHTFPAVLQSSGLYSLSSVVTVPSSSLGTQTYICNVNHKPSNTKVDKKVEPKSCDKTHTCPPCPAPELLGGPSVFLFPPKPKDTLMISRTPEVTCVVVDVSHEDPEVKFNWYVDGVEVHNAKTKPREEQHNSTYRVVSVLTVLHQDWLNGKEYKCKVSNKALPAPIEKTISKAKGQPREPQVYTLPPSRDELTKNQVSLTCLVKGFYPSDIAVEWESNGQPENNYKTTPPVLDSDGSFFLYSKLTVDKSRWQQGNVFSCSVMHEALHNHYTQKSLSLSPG
light: B1 light
notes: copies: 2 + 2
B12: chCB6-huIgG1 I332H (antibody, name in EU numbering)
heavy: not shown
light: B1 light
notes: copies: 2 + 2
B13: chCB6-huIgG1 H268D (antibody, name in EU numbering)
heavy: not shown
light: B1 light
notes: copies: 2 + 2
B14: chCB6-huIgG1 H268P (antibody, name in EU numbering)
heavy: not shown
light: B1 light
notes: copies: 2 + 2
B15: chCB6-huIgG1 L328T (antibody, name in EU numbering)
heavy: not shown
light: B1 light
notes: copies: 2 + 2
B16: chCB6-huIgG1 G236A (antibody, name in EU numbering)
heavy: not shown
light: B1 light
notes: copies: 2 + 2
B17: chCB6-huIgG1 S239H (antibody, name in EU numbering)
heavy: not shown
light: B1 light
notes: copies: 2 + 2
B18: chCB6-huIgG1 L234Q (antibody, name in EU numbering)
heavy: not shown
light: B1 light
notes: copies: 2 + 2
B19: chCB6-huIgG1 S239P (antibody, name in EU numbering)
heavy: not shown
light: B1 light
notes: copies: 2 + 2
B20: chCB6-huIgG1 A330H (antibody, name in EU numbering)
heavy: not shown
light: B1 light
notes: copies: 2 + 2
B21: chCB6-huIgG1 E294S (antibody, name in EU numbering)
heavy: not shown
light: B1 light
notes: copies: 2 + 2
B22: chCB6-huIgG1 S239E/I332E (antibody, name in EU numbering)
heavy: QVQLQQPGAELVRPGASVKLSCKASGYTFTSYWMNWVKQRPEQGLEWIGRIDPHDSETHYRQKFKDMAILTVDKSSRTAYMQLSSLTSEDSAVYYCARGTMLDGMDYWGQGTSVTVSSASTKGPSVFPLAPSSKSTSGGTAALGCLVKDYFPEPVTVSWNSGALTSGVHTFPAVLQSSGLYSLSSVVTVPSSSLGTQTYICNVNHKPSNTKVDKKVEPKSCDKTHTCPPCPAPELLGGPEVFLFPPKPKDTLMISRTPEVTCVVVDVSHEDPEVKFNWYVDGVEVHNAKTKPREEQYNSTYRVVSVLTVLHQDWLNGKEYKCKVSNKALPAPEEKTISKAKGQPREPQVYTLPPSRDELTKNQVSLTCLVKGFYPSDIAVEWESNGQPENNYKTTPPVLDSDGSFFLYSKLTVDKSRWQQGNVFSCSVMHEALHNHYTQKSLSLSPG
light: B1 light
notes: copies: 2 + 2
B23: chCB6-huIgG1 S239E/I332D (antibody, name in EU numbering)
heavy: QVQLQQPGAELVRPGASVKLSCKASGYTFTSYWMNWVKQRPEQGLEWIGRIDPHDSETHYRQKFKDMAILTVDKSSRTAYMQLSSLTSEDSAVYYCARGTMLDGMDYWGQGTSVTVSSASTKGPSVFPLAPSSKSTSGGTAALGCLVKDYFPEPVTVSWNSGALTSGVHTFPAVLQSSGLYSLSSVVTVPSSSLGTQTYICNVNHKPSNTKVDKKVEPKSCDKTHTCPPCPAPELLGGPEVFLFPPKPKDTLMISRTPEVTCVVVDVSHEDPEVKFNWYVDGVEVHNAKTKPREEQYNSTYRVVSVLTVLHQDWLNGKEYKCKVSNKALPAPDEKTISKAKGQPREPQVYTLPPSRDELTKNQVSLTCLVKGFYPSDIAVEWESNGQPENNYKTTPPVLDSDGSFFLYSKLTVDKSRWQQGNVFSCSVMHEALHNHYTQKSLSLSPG
light: B1 light
notes: copies: 2 + 2
B24: chCB6-huIgG1 S239D/H435S (antibody, name in EU numbering)
heavy: not shown
light: B1 light
notes: copies: 2 + 2

T1 sequence (P08637 17-254): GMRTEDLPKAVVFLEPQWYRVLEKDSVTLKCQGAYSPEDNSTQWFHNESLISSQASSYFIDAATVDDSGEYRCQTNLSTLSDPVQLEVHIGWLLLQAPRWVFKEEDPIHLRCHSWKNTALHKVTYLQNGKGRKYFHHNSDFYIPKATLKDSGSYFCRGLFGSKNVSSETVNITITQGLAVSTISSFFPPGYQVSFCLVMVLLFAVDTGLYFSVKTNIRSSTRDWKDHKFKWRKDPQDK

The first experiment concerns the target T1, human FcγRIII (CD16), CD16a (F158), on CD16-transfected Jurkat cells (human, UniProt P08637 17-254).
T1 construct: whole, on cells
Description: CD16 bridging assay, transient.
On to B1, for which the “fold increase in binding vs WT” value is 15 fold.
As for B2, the “fold increase in binding vs WT” value was determined as 6 fold.
As to B3, the “fold increase in binding vs WT” value stood at 2 fold.
Regarding B4, the “fold decrease in binding vs WT” value turned out to be 3 fold.
Take B5: the “fold decrease in binding vs WT” value came out at 30 fold.
On to B6, for which the “fold increase in binding vs WT” value amounted to 4 fold.
Turning to B7, the binding result is on record as “no binding”.
As to B8, the “fold decrease in binding vs WT” value was determined as 30 fold.
On to B9, for which the “fold decrease in binding vs WT” value worked out at 13 fold.

A further experiment deals with T2, human C1q (Sigma C0660) (human, UniProt P02745 23-245; P02746 28-253; P02747 29-245).
T2 construct: Bought protein; also called complement protein C1q
T2 sequence (P02745 23-245 limits assumed, chain 1 of 3): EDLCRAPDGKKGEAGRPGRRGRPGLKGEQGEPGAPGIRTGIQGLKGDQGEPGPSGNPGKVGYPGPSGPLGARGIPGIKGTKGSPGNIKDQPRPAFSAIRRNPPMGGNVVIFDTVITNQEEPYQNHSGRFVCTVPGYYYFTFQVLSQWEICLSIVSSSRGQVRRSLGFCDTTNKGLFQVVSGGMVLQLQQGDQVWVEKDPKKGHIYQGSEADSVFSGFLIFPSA
T2 sequence (P02746 28-253 limits assumed, chain 2 of 3): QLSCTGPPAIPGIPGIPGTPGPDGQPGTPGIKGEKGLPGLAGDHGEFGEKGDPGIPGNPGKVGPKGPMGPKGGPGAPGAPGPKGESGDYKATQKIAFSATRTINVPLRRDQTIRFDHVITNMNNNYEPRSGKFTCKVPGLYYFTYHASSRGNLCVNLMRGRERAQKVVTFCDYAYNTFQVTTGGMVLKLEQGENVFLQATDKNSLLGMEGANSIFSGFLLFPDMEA
T2 sequence (P02747 29-245 limits assumed, chain 3 of 3): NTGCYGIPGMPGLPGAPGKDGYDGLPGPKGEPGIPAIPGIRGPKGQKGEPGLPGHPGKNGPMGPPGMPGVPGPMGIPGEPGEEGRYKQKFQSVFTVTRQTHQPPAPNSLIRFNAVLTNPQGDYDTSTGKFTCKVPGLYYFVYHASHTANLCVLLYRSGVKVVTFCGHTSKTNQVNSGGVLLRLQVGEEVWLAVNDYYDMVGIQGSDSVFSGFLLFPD
Description: C1q ELISA on CD2, transient. The procedure: (§1) The C1q binding assay was performed by coating 96 well Maxisorb ELISA plates (Nalge-Nunc Rochester, N.Y., USA) with 50 μl recombinant soluble human CD2 at 10 μg/ml overnight at 4° C. in PBS. The wells were aspirated and washed three times with wash buffer (PBS, 0.05% Tween 20) and blocked for >1 h with 200 μ/well of block/diluent buffer (0.1 M Na₂HPO₄, pH 7, 0.1 M NaCl, 0.05% Tween 20, 0.1% gelatin). The antibody to be tested was diluted in block/diluent buffer starting at 15 μg/ml with 3-fold dilutions. 50 μl were added per well, and the plates incubated for 2 h at room temperature. After aspirating and washing as above, 50 μl/well of 2 μg/ml of Sigma human C1q (C0660) diluted in block/diluent buffer was added and incubated for 1.5 h at room temperature. After aspirating and washing as above, 50 μl/well of chicken anti human C1q (Cedarlane laboratories CL2101AP), diluted 2,000-fold in block/diluent buffer, was added. After incubation for 1.5 h at room temperature, the wells were aspirated and washed as above. 50 μl/well of donkey F(ab′)₂ anti chicken IgY HRP conjugate (Jackson ImmunoResearch 703-036-155) diluted to 1:5,000 in block/diluent was then added, and the wells incubated for 1 h at room temperature. After aspirating and washing as above, 100 μl TMB substrate (420 μM TMB, 0.004% H₂O₂ in 0.1 M sodium acetate/citric acid buffer, pH 4.9) was added and incubated for 2 min before the reaction was stopped with 100 μl 2 N sulfuric acid. The absorbance was read at 450 nm with a Softmax P instrument, and Softmax software was used to determine the relative binding affinity (C value) with a 4-parameter fit.
A general note: In an ELISA, binding on a coated surface is turned into a signal by an enzyme label.
With B10, the binding result is recorded as “binds”.
As for B11, the “fold decrease in binding vs WT” value stood at 3 fold.

The target of another experiment is T1, human FcγRIII (CD16), CD16a (F158), on …. In words: CD16 bridging assay, purified.
Take B12: the “fold decrease in binding vs WT” value is 2 fold.
In the case of B1, the “fold increase in binding vs WT” value was found to be 9 fold.
The same measure, in the same setting: with B2 the figure was 6 fold.
Take B3: the “fold increase in binding vs WT” value amounted to 2 fold.
B4: the “fold decrease in binding vs WT” value came out at 2 fold.
Same read-out and setting: for B5 the value was 9 fold.
Take B6: the “fold increase in binding vs WT” value was determined as 3 fold.

A further experiment shares this target. In words: CD16 bridging assay, transient. This is another data set of the same source.
As to B13, the “fold increase in binding vs WT” value was determined as 3 fold.
Regarding B14, the “fold decrease in binding vs WT” value turned out to be 3 fold.
On the same count and under the same terms, with B15 the figure was 3 fold.
For the molecule B16, the “fold decrease in binding vs WT” value came to 2 fold.
In the case of B17, the binding result is on record as “no binding”.
Take B18: the “fold decrease in binding vs WT” value is 5 fold.
As for B19, the binding result is given as “no binding”.
On the same count and under the same terms, with B20 the entry was “binds”.

A further experiment shares this target. Description: summary of Table 5 assays.
As for B10, the “fold decrease in binding vs WT” value was more than 10 fold.
As to B11, the “fold decrease in binding vs WT” value was more than 10 fold.
Same read-out and setting: with B21 the figure was more than 10 fold.

The target of a further experiment is T2, human C1q (Sigma C0660). In words: C1q ELISA on CD2, purified. The procedure: as §1
On to B12, for which the binding result is given as “binds”.
As for B1, the binding result is recorded as “binds”.
Turning to B2, the “fold decrease in binding vs WT” value turned out to be 2 fold.
As for B22, the binding result was “binds”.
Same read-out and setting: with B23 the entry was “binds”; with B3, “binds”; with B4, “no binding”.
Consider B5, for which the binding result is listed as “no binding”.
In the case of B6, the “fold decrease in binding vs WT” value was 2 fold.
On to B7, for which the binding result is reported as “no binding”.

Another experiment deals with T3, human FcγRI (CD64) on IFNγ-activated U937 cells (human, UniProt P12314 16-374).
T3 construct: whole, on cells; also called FcγR1
T3 sequence (P12314 16-374): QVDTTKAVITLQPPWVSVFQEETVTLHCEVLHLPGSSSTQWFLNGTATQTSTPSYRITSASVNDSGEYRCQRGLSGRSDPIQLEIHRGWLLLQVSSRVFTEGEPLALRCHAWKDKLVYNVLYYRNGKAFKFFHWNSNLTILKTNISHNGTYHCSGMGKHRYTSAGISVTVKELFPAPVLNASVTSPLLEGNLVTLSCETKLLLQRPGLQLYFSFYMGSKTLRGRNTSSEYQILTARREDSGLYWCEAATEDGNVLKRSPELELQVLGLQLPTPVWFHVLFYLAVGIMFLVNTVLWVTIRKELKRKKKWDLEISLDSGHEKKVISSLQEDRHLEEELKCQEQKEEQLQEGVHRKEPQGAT
In words: CD64 bridging assay, purified.
Regarding B12, the binding result is reported as “binds”.
B1: the binding result is listed as “binds”.
The same measure, in the same setting: for B2 the value was “binds”; for B3, “binds”.
On the same count and under the same terms, for B4 the value was “binds”.
As for B5, the “fold decrease in binding vs WT” value came out at 14 fold.
For B6, the binding result is “binds”.
In the case of B7, the binding result was “binds”.

In another experiment the target is T1, human FcγRIII (CD16), CD16a (F158), on …. In words: CD16 bridging assay, transient. The source holds these as a separate data set.
For the molecule B22, the “fold increase in binding vs WT” value turned out to be 3 fold.
With B23, the “fold increase in binding vs WT” value is 3 fold.
Same read-out and setting: with B24 the figure was 3 fold.

A further experiment has as its target T4, GST-tagged FcγRIII, CD16a (V158) (UniProt P08637 17-208, limits assumed).
T4 construct: the canonical entry carries F there; Captured by biotinylated anti-GST mAb on streptavidin donor beads; also called GST-FcγRIII; not shown: GST tag
In words: AlphaScreen competition vs huIgG1 beads, purified. The procedure:
The relative binding affinities to FcγRIII (CD16), of the variant antibodies, was determined using an AlphaScreen assay (Amplified Luminescent Proximity Homogeneous Assay, PerkinElmer, MA, USA). Laser excitation of a donor bead excites oxygen, which if in close proximity to an acceptor bead generates a cascade of chemiluminescent events, ultimately leading to fluorescence emission at 520-620 nm. […] The reaction was carried out for one hour in a 25 μl volume and plates were read in the Fusion Alpha reader (PerkinElmer).
On the technique in general: Bead proximity is the source of the signal in Alpha formats.
B1: the “fold increase in binding vs WT” value turned out to be 4 fold.
With B2, the “fold increase in binding vs WT” value was determined as 9 fold.
Regarding B22, the “fold increase in binding vs WT” value amounted to 10 fold.
For B23, the “fold increase in binding vs WT” value is 7 fold.
On to B6, for which the “fold increase in binding vs WT” value came out at 8 fold.

A further experiment has as its target T1, human FcγRIII (CD16), CD16a (F158), on …. Description: summary of Table 3 assays.
Turning to B5, the “fold decrease in binding vs WT” value was more than 10 fold.
Take B7: the “fold decrease in binding vs WT” value was more than 10 fold.
Still for that read-out and setting: with B8 the figure was more than 10 fold; with B9, more than 10 fold.

Another experiment has the same target. In words: CD16 bridging assay, purified. The source holds these as a separate data set.
Regarding B22, the “fold increase in binding vs WT” value is 6 fold.
The same measure, in the same setting: for B23 the value was 8 fold; for B24, 6 fold.

The target is the same in another experiment. Description: CD16 bridging assay, transient. This is another data set of the same source.
On to B10, for which the “fold decrease in binding vs WT” value was 13 fold.
Still for that read-out and setting: with B11 the figure was 18 fold; with B21, 12 fold.
